Experiment: yeast display, Sf9 membrane polyspecificity reagent, FACS + sequencing; frameworks hold sequencing errors
Method in brief: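 Galactose-induced (36–48 hours) yeast carrying a synthetic nanobody display library were exposed to 10% biotinylated, detergent-solubilized Sf9 membrane reagent at 4 °C for 1 hour. FACS followed streptavidin microbead enrichment, using low and high (top ~1%) gates for expression (anti-HA) and reagent binding (streptavidin). Colony PCR, MiSeq 2 × 250 sequencing and CDR-length filtering followed. Labels for polyreactivity reflect the gate of origin.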

Row | Sequence | polyreactivity (PSR sort gate)
1 | QVQHVDSGGGLVQAGGSLRLSCSASGINFPWYAMGWYRQAPGKERELVAAITSGGSTYYADSVKGRFTISRDNAKNTVYLEMYSLKPEDTAVYYCNADYYSWYLGAYLYDYWGQGTQVTVSS | high polyreactivity
2 | QVQHVDTGGGLVQAGGSLRLSCAASGSIFGRYAMGWSRQAPGKERELVASINWNSGSTYYADSVKGRFTISRDNAKYTVYLQMNSLKPEDTAVYYCAAAALGYYGYRGFDYWGQGTQVTVSS | low polyreactivity
3 | QVQHVESAGGLVQAGGSLRLSCAASGGIFWVYAMGWSRQAPGTERELVAAISNSDTSTSYADSVKGRFTISRDNAKNTVYLQMNSLKPEDTAVYYCNAVSPSLSGDYWGQGTQVTVSS | low polyreactivity
4 | QVQHVESAGGLVQAGGSLRLSCAASGRIFYVNAMGWYRPAPGKERQLVAAIRSAVGTYYADSVKGRFTISRDNAKNTVYLQMNSLKPEDTAVYYCNADASFREYRFYLIEMDYWGQGTKVTVSS | high polyreactivity
5 | QVQHVESAGGLVQAGGSLRLSCAASGSTFSDYAMGRYRQAPGKERELVAAISRSGGSTYYADSVKGRFTISRDNAKNTVYLQMNSLKPEDTAVYYCAASRATLLRYGYWGQGTQVTVSS | low polyreactivity
6 | QVQHVESCGGLDQAGGSLRLSCAASGRTFKYYTMGWYRQAPGKQREFVAAISTGGSTHYADSVKGRFTISRDNAKNTVYLQMNSLKPEVTAVSYCAAGCVLWVRDPQGRASYYWGQGTHVTVSS | high polyreactivity
7 | QVQHVESGAGLVQAGGSLRLRCAASGIIFYYYAMGWYRQAPGKERELVASISRSGTDTYYADSVKGRFTISRDNAKYTVYLQMNSLIPEDTAVYDCAAKLYSKRTGARMNYWGQGTQVTVSS | high polyreactivity
8 | QVQHVESGAGLVQAGGSLRLSCAASGRIFSRYAMGWYRQAPGKERELVAAISERGASTYYADSVKGRFTISRDNAKNTVYLQMNSLKPEDTAVYYCAAKRGSGYGYWGQGTQVTVSS | high polyreactivity
9 | QVQHVESGGALVQAGGSHRLSCAASGLTIWRYAKGWYRLATGKERELVAAINYNGVRTYYADSVKGRFTISRDNAKNTVYLQMNSLKQEDTAVYYCAAKPGYYGYWGQGTQVTVSS | high polyreactivity
10 | QVQHVESGGCLVQAGGSLRLSCAASGSIFSYYDMGWYRHAPGKERELVAAIRGSGGITYADSVKGRFTISRDNAKNTVYLQMNSLKPEETAVYYCAADQYYRSDYYYWGQGTQVTVSS | low polyreactivity
11 | QVQHVESGGCLVQAGGSLRLSCAASGYTFRYYAMGWYRQAPGKERELVAAINWSGCSTYYADSVKGRFTISRDNAKNTVYLHMNSLKPEDTAVYYCAADPDGDVDIDYDYWGQGTQVTVSS | low polyreactivity
12 | QVQHVESGGCLVQAGGSLRLSCASSGRTFARYAMGWSRQPPGKDSELVAAITRRGGSTYYADSVKGRFTLSRDNAKNTVSLQMNSLKPEDTAVYYCAAHYRNFGIGAYEYWGKGTQVTVSS | high polyreactivity
13 | QVQHVESGGGIVQAGGSLRLSCAASGIIFIGNAMGWYRQAPGKERELVAAITYTGGSTYYADSVKGRFTISRDNAKNTVYLQMNSLKPEDTAVYYCAVDRTHLEDDYWGQGTQVTVSS | low polyreactivity
14 | QVQHVESGGGIVQAGGSLRLSCAASGIIFSDYAMGWYRQARGKERELVATITRSVRTSYADSVKGRFTISRDNAKNTVYLQMNSLKPEDTAVYYCYADVVGAVIAYDYWGQGTQVTVSS | low polyreactivity
15 | QVQHVESGGGIVQAGGSLRLSCAASGLTITAYVMGWYRQAPGKERELVAAIRNSGGSTYYADSVKGRFTISRDNAKNTVYLQMISLKPEDTAVYYCAKQTSYWSRGYDYWGQGTQVTVSS | low polyreactivity
16 | QVQHVESGGGLDQAGGSLRLSCAASGFTFVFNAMGWYRQAPGKERELVATITNGGSTYYADSVKGRFTISRDNAKNTVYLQMNSLKPEDTAVYYCAKTWFAYRDYDFWGQGTQVTVSS | high polyreactivity

Row | Sequence | polyreactivity (PSR sort gate)
17 | QVQHVESGGGLDQAGGSLRLSCAASGRIFYANAMGWYRQAPRKERELVAAIDWSGGSTYYADSVKGRFTISRDNAKNTVYLQMNSLKPEDTAVYYCAGPYHYYGNSVGYADYVYWGQGTQVTVSS | low polyreactivity
18 | QVQHVESGGGLLQAGGSLRLSCAASVSTLSKNAMGWYRQAPGKERELVAAITRRGGSTSYADSVKGRFTISRDNAKNTVYFQMNSLKPEDTAVYYCNAVSKYDYGYWGQGTQVTVSS | high polyreactivity
19 | QVQHVESGGGLLQAGGSLRLTCTASRSIFPYYAMGWYRQATGKERELVAAISSSGARTYYADSVKGRFTISRDNAKNTVYLQMNSLKPEDTGFYYCNSDTIRYRTYGRYAWYNYWGQGTQVTVSS | high polyreactivity
20 | QVQHVESGGGLVHAGGSLRLSCAASGSTFRPYPRGWSRQAPGKERELVAAIRKIGGRTYYADSVKGRFTISRDNAKNTVYLQMNSLKPEDTAVYYCNKRIGGGVHAYNYWGQGTQVTVSS | low polyreactivity
21 | QVQHVESGGGLVQAGCSLRLSCAASGLIFGLYAMGWFRPAPGKERELVAAISYRTDSTYADSVKGRFTISRDNAKNTVYLQMNSLKPEDNAVYYCAADLRVSVRYYYWGHGTQVTVSS | low polyreactivity
22 | QVQHVESGGGLVQAGGRLRLSCAASGIIFQYYAMGSYRQAPGKERESVAGITYPGGSTYYADSVKGRFTISRDNAKNTVYLPKNSLQPEDTAVYFCNAVGVSARYWRQLPSYRYDYWGQGTQVTVSS | low polyreactivity
23 | QVQHVESGGGLVQAGGSHRLSCAASGRIFPWNTMGRYRQAPGKERELVAGITSGGSTNYADSVKGRFTISRDNAKNTVYLQMKSLKPEDTAVYYCNRDSVGYDYWGQGTQVTVSS | low polyreactivity
24 | QVQHVESGGGLVQAGGSHRLSSAASGSTFRGYVMGWYRQAPGKERELVAVITTSDGDTYYADSVKGRFTNSRDNAKNTVYLQMNSLKPEDTAVYYCNADLYSYYGDNYWGQGTQVTVSS | low polyreactivity
25 | QVQHVESGGGLVQAGGSLLLSSAASGRTFLVNAMGWNRQAPGKEREFVAAITSRSGRTNYADSVKGRFTISRDTAKNNVYLQMNSLKPEDTAVYYCNAEGYTVKYWYSRYDYWGQGTQVTVSS | high polyreactivity
26 | QVQHVESGGGLVQAGGSLRIRCAASGSIFDLNAMGWYRPAPGKEMELVAASSSGGGTYYADSVKGRFTISRDNAKKTVYLLMISLKPEDTALSDCNRVTRWTYNYWGQGSQVTVSS | high polyreactivity
27 | QVQHVESGGGLVQAGGSLRLICAASGSTFGYNAMGWYRHAPGKERELVARITSSGGATYYADSVKWRFTISRDNAKHTVYLLKNSLKPEDTAVYYCAAGYPYRAVYRYYYWGQGTQVTVSS | high polyreactivity
28 | QVQHVESGGGLVQAGGSLRLSCAASARIFYWYVMGWSRQAPGKERELVASISRSGGSTYYADSVKGRFTISRDNAKNTVYVQMNSLKPEDTAVYYCNAGSVYTVSLPGHPYDYWGQGTQVTVSS | low polyreactivity
29 | QVQHVESGGGLVQAGGSLRLSCAASGFIFDNYAMGWYRQSPGKERELVAAISRSGGSTYYADSVKGRFTISRDNAKTTVYLQMNSLKPEDTAVYYCATSGPRGWSLHDYWGQGTQVTVSS | high polyreactivity
30 | QVQHVESGGGLVQAGGSLRLSCAASGFIFPNNAMGWYLQAPGKERELVARISYGGGDTHYADSVKGRFTISRDNAKNTVSLQMNSLKPEDTAVYYCAVKVGQDDYWGQGTQVTVSS | low polyreactivity
31 | QVQHVESGGGLVQAGGSLRLSCAASGFIFRRYVMGWYRQAPGKERELVAAISYGGGSTYYADSVKGRFTISRDNAKNTVYLQMNCLKPEDTAVYYCNAVSYNLAAYDYWGQGTQVTVSS | high polyreactivity
32 | QVQHVESGGGLVQAGGSLRLSCAASGFIFRYYAMGWYRQAPGKERELVAAITWNGGSTYYADSVKGRFTISRDNAKNTVYLQLNSLKPEDTAVYYCADVPYTPSPYTYGYWGQGTQVSVSS | high polyreactivity

— the nanobody polyreactivity screen of Harvey et al. (2022)
